Source: PMC4958977, “Revisiting the mechanism of coagulation factor XIII activation and regulation from a structure/functional perspective” (Scientific Reports, 2016)

Target: the molecule itself
Assay: SEC; 25 ug purified FXIIIA2B2 incubated with 46.2 U/mL thrombin and 25 mM CaCl2, 20 mM Tris, 120 mM NaCl, pH 7.4, 60 minutes at 30 degrees; Superdex 200 PC 3.2/30; peaks checked by native PAGE and mass spectrometry

B1: coagulation factor XIII B subunit (natural protein, human, UniProt P05160 21-661, looked up)
chain: EEKPCGFPHVENGRIAQYYYTFKSFYFPMSIDKKLSFFCLAGYTTESGRQEEQTTCTTEGWSPEPRCFKKCTKPDLSNGYISDVKLLYKIQENMRYGCASGYKTTGGKDEEVVQCLSDGWSSQPTCRKEHETCLAPELYNGNYSTTQKTFKVKDKVQYECATGYYTAGGKKTEEVECLTYGWSLTPKCTKLKCSSLRLIENGYFHPVKQTYEEGDVVQFFCHENYYLSGSDLIQCYNFGWYPESPVCEGRRNRCPPPPLPINSKIQTHSTTYRHGEIVHIECELNFEIHGSAEIRCEDGKWTEPPKCIEGQEKVACEEPPFIENGAANLHSKIYYNGDKVTYACKSGYLLHGSNEITCNRGKWTLPPECVENNENCKHPPVVMNGAVADGILASYATGSSVEYRCNEYYLLRGSKISRCEQGKWSSPPVCLEPCTVNVDYMNRNNIEMKWKYEGKVLHGDLIDFVCKQGYDLSPLTPLSELSVQCNRGEVKYPLCTRKESKGMCTSPPLIKHGVIISSTVDTYENGSSVEYRCFDHHFLEGSREAYCLDGMWTTPPLCLEPCTLSFTEMEKNNLLLKWDFDNRPHILHGEYIEFICRGDTYPAELYITGSILRMQCDRGQLKYPRCIPRQSTLSYQEPLRT
notes: human coagulation factor XIII B subunit from plasma, ten Sushi domains; 80 kDa; also called FXIIIB; FXIIIB2; source: purified as FXIIIA2B2 from plasma concentrate Fibrogammin P (CSL Behring), gel filtration on Superdex 200
binding result: binds
